Blank lines part the entries; values can stand above or below the molecule they belong to.
Legend:
[1] = target: I-Vdi141I … homing endonuclease, wild type (Vulcanisaeta distributa strain IC-141); assay: SEC
[2] = target: T1, I-Vdi141I I65M/I107M (selenomethionyl) (V. distributa strain IC-141, UniProt Q6L703 1-169, I65M;I107M); assay: X-ray crystallography
T1 sequence: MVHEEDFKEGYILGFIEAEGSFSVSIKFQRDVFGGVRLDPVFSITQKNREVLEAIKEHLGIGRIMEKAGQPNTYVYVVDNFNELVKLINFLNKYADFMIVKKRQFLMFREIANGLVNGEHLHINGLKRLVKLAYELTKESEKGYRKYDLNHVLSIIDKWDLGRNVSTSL

stoichiometry N [1]: 2
Molecule: I-Vdi141I … homing endonuclease, wild type (enzyme)

B1: 22 bp I-Vdi141I target site duplex (dsDNA)
DNA 1: CTGACTCTCTTAAGGTAGCCAA
DNA 2: TTGGCTACCTTAAGAGAGTCAG
binding result [2]: binds
